Usually EC50 stands for the concentration that produces a half-maximal response.

For one data set, the system named is human PBMC cells. In words: Inhibition by humanized antibodies of IFNα release from human PBMC cells stimulated by CpG-A. Format: cell-based. The following applies: Table 4, humanized antibodies; read-out: EC50, inhibition of release of cytokine IFNα from human PBMC cells stimulated by CpG-A. The method, then: A series of humanized candidate antibody molecules were selected and subjected to the function detection of inhibiting the release of the cytokine IFNα from the human PBMC cells stimulated by CpG-A. The cryopreserved human PBMC cells were thawed and incubated in a complete culture medium (1640+10% FBS+1×NEAA+1×L-Glutamine) overnight for 18 h. The next day, the PBMC cells were collected and centrifuged at 600 g for 8 min, and the supernatant was discarded. The cells were resuspended to 8×10^6 cells/mL in a culture medium (1640+10% FBS), and the mixture was added to a 3799 cell culture plate at 100 μL/well. The test antibody was diluted in a 10-fold gradient (0.0001 nM-10 nM, and 0 concentration point was used as a control) with the culture medium (1640+10% FBS), and the diluted antibody was added to the PBMCs at 50 μL/well. The cells were resuspended and then incubated at 37° C. for 6 h. 50 μL of CpG-A (2 μM, Invitrogen, tlrl-2216-5) diluted in the culture medium (1640+10% FBS) was added to each well and mixed, followed by incubation at 37° C. for another 20 h. […]
The antibody MT1/3/5 (Mabtech, 3425-1H-20) was diluted to 4 μg/mL with PBS, and added to a CORNING ELISA plate at 100 μL/well. […] The values at OD450 nm were read on an ELISA plate reader, and curves were fitted using GraphPad Prism6. […]

In a further data set the target is T1, recombinant Human BDCA2 (Homo sapiens, UniProt Q8WTT0).
T1 construct: extracellular domain (Asn45-Ile213) of human BDCA2 (hBDCA2); human IgG1 Fc (fused via a linker) (N); made in house; host or cells: 293E
T1 sequence (Q8WTT0 45-213): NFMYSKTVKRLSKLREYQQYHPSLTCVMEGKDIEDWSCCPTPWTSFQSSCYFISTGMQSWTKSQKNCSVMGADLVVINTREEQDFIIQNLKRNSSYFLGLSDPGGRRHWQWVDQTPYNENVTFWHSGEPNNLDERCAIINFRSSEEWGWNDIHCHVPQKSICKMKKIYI
Description: Affinity assay of humanized antibodies by BIAcore (SPR). The following applies: 1:1 binding model. The method, then:
The humanized antibodies of the present disclosure were assayed for affinity by the BIAcore experiment. The surface of a CM5 chip channel was activated with 50 mM NHS and 200 mM EDC (NHS and EDC from an amino coupling kit) mixed in a ratio of 1:1, and the anti-human IgG (Fc) antibody (diluted with a sodium acetate solution at pH 5.0, the concentration was 25 μg/mL) was injected for 420 s. Then 1 M ethanolamine was injected at a flow rate of 10 μL/min for 420 s to block excess active carboxyl groups on the chip. The humanized antibody was diluted to 1 μg/mL using a running buffer and injected into a detection channel flow cell at a flow rate of 10 μL/min. The sample injection was performed for 60 s for capture. The recombinant Human BDCA2 was diluted to 50 nM or 100 nM with 1× HBS-EP+ (pH 7.4), and diluted in a gradient of 1:2 to 0.39 nM. The test samples hBDCA2 at these concentration gradients were separately injected into the detection channel at a flow rate of 30 μL/min, wherein 2 samples at the concentration of 0 were used for removing background signals. The times for the antibody-antigen binding and dissociation were 180 s and 400 s, respectively. […] After subtraction of the signals from the reference channel (flow cell 1) and 0 concentration, a 1:1 binding model was selected for curve fitting, and kinetic parameters calculated.
A general note: SPR reads the build-up and loss of mass on a sensor chip optically.

The subject of data set [1] is pDCs in the peripheral blood of cynomolgus monkeys. Description: pDC percentage and BDCA2 expression level on pDCs in peripheral blood of dosed cynomolgus monkeys by FACS. The settings on record: 10 mg/kg intravenous.
Description: Nine female cynomolgus monkeys were divided into 3 groups, 3 cynomolgus monkeys per group.
The pDC percentage in the peripheral blood and the BDCA2 expression level on the surface of pDCs were detected by FACS.
Venous blood of the cynomolgus monkeys was collected by using a heparin anticoagulation tube, 6 mL of red blood cell lysis buffer was added to 300 μL of the blood, and the resulting mixture was placed at room temperature for 10 min. The cells were collected by centrifugation at 400 g for 5 min at room temperature. The cells were washed with PBS and resuspended in 100 μL of cell staining buffer (PBS+1% FBS). 5 μL of Fc Block was added to the cell suspension and left to stand at 4° C. for 10 min. […] The cells were washed twice with PBS, resuspended in 200 μL of the cell staining buffer, and analyzed by using a flow cytometer.

With “BIIB059: reference antibody specifically binding to BDCA2, sequence derived from U.S. Pat. No. 9,902,775B2; SEQ ID NO: 25 and 26 [reference compound]”, the concentration for a half-maximal effect (EC50) in the data set on human PBMC cells stood at 0.04 nM. In addition, in the data set with recombinant Human BDCA2, the ka is 167000 M⁻¹ s⁻¹ and the kd was 0.000179 s⁻¹. In addition, in data set [1], the “BDCA2 level on the surface of pDCs in the blood compared to the blank control” value is “reduced” and the “pDC percentage in the blood compared to the blank control” value is given as “no significant change”.

The values are drawn from patent publication US20260216362A1, “ANTI-BDCA2 ANTIBODY-DRUG CONJUGATE AND USE THEREOF” (DUALITY BIOLOGICS (SHANGHAI) CO., LTD., priority 2022, published 2026).
